This is an account of results in patent US10323078B2, “Isolated peptides and fragments thereof from fibrinogen for use as drugs, particularly in skin inflammatory diseases” (Universite Paris Descartes, priority 2015, dated 2019).

The subject of assay [1] is HaCaT, NHDK, THP-1, MRC5 and HDF. Description: H2O2 production by cells stimulated with P. acnes, overall statement for the five cell lines. The following applies: pretreatment of P. acnes strains with small peptide 2.5 to 20 μM; five cell lines and three strains tested. In kind it is cell-based, human. The procedure: FIG. 17: Dose-dependent inhibition of H2O2 production by fibroblast pre-treated by small Fg1-generated peptides and stimulated by P. acnes. MRC5 cell were incubated for 24 h with small peptides Fg1.1 (light gray bar), Fg1.2 (horizontal line bar), Fg1.3 (hatched bar), Fg1.4 (dark gray bar), Fg1.5 (dotted bar) at concentrations ranging from 2.5 to 20 μM. Measurement of hydrogen peroxide production was realized by spectrofluorometry as described in Materials and Methods. Controls experiments were done with unstimulated MRC5 cell (white bar) and MRC5 stimulated with P. acnes (black bar). Data are means±S.D. of three separate experiments. Statistical significance is indicated by * (P<0.05), ** (P<0.01), *** (P<0.001), and **** (P<0.0001), respectively.
All cells lines (5·10^4 to 10^5 cells/well) were seeded in 96-well plates (Corning Costar, Brumath, France) and treated as previously described. After stimulation, cells were washed three times in PBS and incubated with 100 μl per wells of 5 μM DHE (for determination of O2^●−) or 5 μM H2-DCFDA (for determination of H2O2) for 30 min as described previously and fluorescence intensity was recorded every hour over a period of 5 h. Fluorescence excitation/emission maxima were for DHE: 480/610 nm and for H2-DCFDA: 507/525 nm. At the end of the experiment, the number of adherent cells was evaluated by the crystal violet assay as described below. O2^●−, and H2O2 were assayed by spectrofluorimetry on a Fusion spectrofluorimeter (PackardBell, Paris, France). Levels of ROS were calculated in each sample as follows: reactive oxygen species rate (arbitrary units/min/10^6 cells)=(fluorescence intensity [arbitrary units] at T5h—fluorescence intensity [arbitrary units] at To/300 minutes/number of adherent cells as measured by the crystal violet assay, and were expressed as arbitrary unit (A.U.).
To assess the efficacy of the small Fg1-related peptide, the production of H2O2 by several cell lines (HaCaT, NHDK, THP-1, MRC5 and HDF) stimulated by three P. acnes strains 6919, RON and PIE was measured, in presence or not with the small peptides. The amount of H2O2 produced is compared to that produced by the stimulated cells with untreated bacteria. Production baseline is obtained by measuring H2O2 on unstimulated cells. The measurement of the production of H2O2 is performed by spectrofluorimetry in the presence of specific fluorochromes directly on the monolayer cell.
Two sets of experiments have been implemented: • I) The cells are stimulated (18 h at 37° C.) by P. acnes strains previously pretreated with Fg1.1, Fg1.2, Fg1.3, Fg1.4, and Fg1.5 small peptides at the final concentrations ranging from 2.5 to 20 μM for 1 h at 37° C.; • II) The cells are pretreated first with the five small peptides at the final concentrations ranging from 2.5 to 20 μM for 24 h at 37° C. and stimulated (18 h at 37° C.) by P. acnes strains.
FIG. 17 corresponds to the results obtained with the P. acnes RON strain on the fibroblast MRCS cell line and are representative of the results obtained with all P. acnes and cells lines tested (Table 6).

A further assay has as its system Pfg. Description: Western ligand blot with biotinylated Pfg. Format: binding, Propionibacterium acnes. The following applies: biotinylated Pfg 0.1 μg/ml; for Recognition of GST-fused recombinant Bß fibrinogen fragments by biotinylated Pfg: E. coli total protein after IPTG induction, 12.5% SDS-PAGE; for Recognition by biotinylated Pfg after electrophoretic separation of fibrinogen: 10 μg per lane, 10% SDS-PAGE. How it is done:
FIG. 5: Binding of P. acnes surface proteins to fibrinogen. (A) Various quantities of human fibrinogen (hFg) and bovine fibrinogen (bFg) were immobilized onto a 96-well polystyrene plate at 4° C. for 18 h and incubated with biotinylated Pfg at 0.1 μg/ml for 2 h at 23° C. Bovine serum albumin (BSA) was used as negative control. Bound material was detected by using the HRP-streptavidin conjugate. Peroxidase activity was measured by using the ABTS substrate at 405 nm. Proteins (10 μg per lane) were separated by 10% SDS-PAGE and detected by (B) Commassie blue staining, and transferred to nitrocellulose membrane and incubated with (C) HRP-streptavidine alone, and (D) biotinylated Pfg (0.1 μg/ml). Lanes 1: molecular weight standards. Lane 2: BSA. Lane 3: hFg. Lane 4: bFg.
FIG. 8: Cloning of Bß human fibrinogen fragments and binding with Pfg. (A) Cloning and expression of recombinant human Bß fibrinogen fragments Fg1, Fg2, Fg3 and Fg4. Fibrinogen fragments were obtained by RT-PCR and expression plasmids were constructed as described in Materials and Methods. (B) GST-fused proteins were expressed in E. coli, fractionated by 12.5% SDS-PAGE, and detected by Coomassie blue staining (B), and incubated with biotinylated Pfg (0.1 μg/ml) as described in Materials and Methods (C).
To characterize the interaction between P. acnes and ligands, we used biotinylated molecules in quantitative and qualitative assays. In a first set of assays, ECM ligands (fibrinogen, collagens I, IV, VI and VIII) were used as labelled proteins with biotin. In a second set of assays, P. acnes surface proteins (total extract and purified Pfg) were biotinylated. For quantitative analysis, unlabeled protein were diluted into 50 mM carbonate-bicarbonate, pH 9.6 buffer to yield a protein concentration ranging from 0.01 to 50 μg/ml, and then immobilized to 96-well polystyrene plates at 4° C. overnight. The wells were rinsed three times with 0.2 ml of PBS containing 0.05% Tween-20 (PBS-Tween). Biotinylated proteins (0.01 to 16 μg/ml in PBS-Tween) were added to the wells and incubated at room temperature for 1 h. The wells were rinsed three times with 0.2 ml of PBS-Tween. Peroxidase conjugated to streptavidin (0.5 μg/ml in PBS-Tween) was added and incubated for 30 min at room temperature. After washing, bound peroxidase was detected using the chromogenic peroxidase substrate ABTS. For qualitative analysis, unlabelled protein (10-75 μg per lane) were separated by SDS-PAGE and then transferred to nitrocellulose membranes (0.45 μm pore size), as described previously (Towbin, 1979). Membranes were then saturated overnight at 4° C. in PBS containing 5% BSA, 0.05% Tween-20 (PBT buffer). Binding activity was detected by incubating the membranes with 20 ml of PBT containing biotinylated proteins (0.1 μg/ml) for 2 h at room temperature followed by three washes with PBT. Bound biotinylated proteins were detected by incubating the membrane with peroxidase conjugated to streptavidin (0.5 μg/ml in PBT) for 1 h at room temperature. After washing, bound peroxidase activity was detected using 3,3′-diaminobenzidine in the presence of CoCl2 and H2O2 (Harlow and Lane, 1988).
Since it was shown that Pfg is recognized by fibrinogen, this ECM ligand was used to analyze the nature of this interaction. First it was analyzed the ability of fibrinogen to be recognized by purified Pfg (FIG. 5). Human and bovine Fg (hFg, bFg) were immobilized to polysterene plate and the binding activity of biotinylated Pfg was measured. […] It has been shown that fibrinogen is a glycoprotein containing both N- and O-linked glycans (Debeire 1985; Reid Townsend 1982; L'Hôte 1996). […] In parallel, deglycosylation was assessed by visualization of a shift in the mobility after electrophoresis separation and Coomassie blue staining (FIG. 6A, lanes 3 and 5) and also by using the RCA-I plant lectin able to recognize ß-linked galactosyl residues in terminal position (FIG. 6C) (Green, 1987). […]

Take “YRARPAKAAATQKKVERKAPDAGGCLHADPDLGVLC (fragment Fg1.3) [small peptide generated from Fg1]”: the “Inhibition of H2O2 production” value in assay [1] is “did not”.

As for “APSLRPAPPPISGGGYRARPAKAAATQKKV (fragment Fg1.5) [small peptide generated from Fg1, overlapping Fg1.2 and Fg1.3]”, the “Inhibition of H2O2 production” value in assay [1] is “did not”.

Regarding “NEEGFFSARGHRPLDKKREEAPSLRPAPPPISGGG (fragment Fg1.2) [small peptide generated from Fg1]”, the “Inhibition of H2O2 production” value in assay [1] is “did not”.

B1: PTELLIEMEDWKGDKVKAHYGGFTVQNEANKYQISVNKYRGTAGNALMDGASQLMGENRTMTIHNGMFFSTYDRDNDGWLTSDPRKQCSKEDGGGWWYNRCHAANPNGRYYWGGQYTWDMAKHGTDDGVVWMNWKGSWYSMRKMSMKIRPFFPQ (protein)
chain: PTELLIEMEDWKGDKVKAHYGGFTVQNEANKYQISVNKYRGTAGNALMDGASQLMGENRTMTIHNGMFFSTYDRDNDGWLTSDPRKQCSKEDGGGWWYNRCHAANPNGRYYWGGQYTWDMAKHGTDDGVVWMNWKGSWYSMRKMSMKIRPFFPQ
modifications: fragment Fg4
notes: recombinant fragment of Bß sub-unit of human fibrinogen
As for B1, the “Recognition of GST-fused recombinant Bß fibrinogen fragments by biotinylated Pfg” value in the assay with Pfg is listed as “only Fg1 was recognized”.

B2: γ subunit: γ chain of fibrinogen (protein, UniProt P02679 27-453, looked up)
Fibrinogen gamma chain: YVATRDNCCILDERFGSYCPTTCGIADFLSTYQTKVDKDLQSLEDILHQVENKTSEVKQLIKAIQLTYNPDESSKPNMIDAATLKSRKMLEEIMKYEASILTHDSSIRYLQEIYNSNNQKIVNLKEKVAQLEAQCQEPCKDTVQIHDITGKDCQDIANKGAKQSGLYFIKPLKANQQFLVYCEIDGSGNGWTVFQKRLDGSVDFKKNWIQYKEGFGHLSPTGTTEFWLGNEKIHLISTQSAIPYALRVELEDWNGRTSTADYAMFKVGPEADKYRLTYAYFAGGDAGDAFDGFDFGDDPSDKFFTSHNGMQFSTWDNDNDKFEGNCAEQDGSGWWMNKCHAGHLNGVYYQGGTYSKASTPNGYDNGIIWATWKTRWYSMKKTTMKIIPFNRLTIGEGQQHHLGGAKQVRPEHPAETEYDSLYPEDDL
Regarding B2, the “Recognition by biotinylated Pfg after electrophoretic separation of fibrinogen” value in the assay on Pfg is “No recognition”.

B3: Bß subunit: sub-unit Bß of human fibrinogen, SEQ ID NO: 1 (protein)
chain: MKRMVSWSFHKLKTMKHLLLLLLCVFLVKSQGVNDNEEGFFSARGHRPLDKKREEAPSLRPAPPPISGGGYRARPAKAAATQKKVERKAPDAGGCLHADPDLGVLCPTGCQLQEALLQQERPIRNSVDELNNNVEAVSQTSSSSFQYMYLLKDLWQKRQKQVKDNENVVNEYSSELEKHQLYIDETVNSNIPTNLRVLRSILENLRSKIQKLESDVSAQMEYCRTPCTVSCNIPVVSGKECEEIIRKGGETSEMYLIQPDSSVKPYRVYCDMNTENGGWTVIQNRQDGSVDFGRKWDPYKQGFGNVATNTDGKNYCGLPGEYWLGNDKISQLTRMGPTELLIEMEDWKGDKVKAHYGGFTVQNEANKYQISVNKYRGTAGNALMDGASQLMGENRTMTIHNGMFFSTYDRDNDGWLTSDPRKQCSKEDGGGWWYNRCHAANPNGRYYWGGQYTWDMAKHGTDDGVVWMNWKGSWYSMRKMSMKIRPFFPQQ
modifications: homo sapiens; sub-unit Bbeta of fibrinogen
Take B3: in the assay with Pfg, the “Recognition by biotinylated Pfg after electrophoretic separation of fibrinogen” value is given as “strongly recognized”.

B4: KLESDVSAQMEYCRTPCTVSCNIPVVSGKECEEIIRKGGETSEMYLIQPDSSVKPYRVYCDMNTENGGWTVIQNRQDGSVDFGRKWDPYKQGFGNVATNTDGKNYCGLPGEYWLGNDKISQLTRMGPTELLIEMEDWKGDKVKAHYGGFTVQNE (protein)
chain: KLESDVSAQMEYCRTPCTVSCNIPVVSGKECEEIIRKGGETSEMYLIQPDSSVKPYRVYCDMNTENGGWTVIQNRQDGSVDFGRKWDPYKQGFGNVATNTDGKNYCGLPGEYWLGNDKISQLTRMGPTELLIEMEDWKGDKVKAHYGGFTVQNE
modifications: fragment Fg3
notes: as for B1
On to B4, for which the “Recognition of GST-fused recombinant Bß fibrinogen fragments by biotinylated Pfg” value in the assay on Pfg is on record as “only Fg1 was recognized”.
